Laboratory results as given in the supplement of paper PMC11246515.
± gives the standard deviation of the averaged measurements.

Assay: total protein half-life in vivo (active degradation + dilution); higher = more stable protein
[1] = E. coli NCM3722 delta-clpP delta-lon delta-hslV, growth: N-lim chemostat, doubling time 6 h
[2] = E. coli NCM3722 delta-hslV, growth: N-lim chemostat, doubling time 6 h
[3] = E. coli NCM3722 delta-lon, growth: N-lim chemostat, doubling time 6 h
[4] = E. coli NCM3722 delta-smpB, growth: N-lim chemostat, doubling time 6 h
[5] = wild type E. coli NCM3722, growth: C-lim chemostat, doubling time 3 h
[6] = wild type E. coli NCM3722, growth: C-lim chemostat, doubling time 6 h
[7] = wild type E. coli NCM3722, growth: C-lim chemostat, doubling time 12 h
[8] = wild type E. coli NCM3722, growth: N-lim chemostat, doubling time 6 h
[9] = wild type E. coli NCM3722, growth: N-lim chemostat, doubling time 12 h
[10] = wild type E. coli NCM3722, growth: P-lim chemostat, doubling time 6 h
[11] = wild type E. coli NCM3722, growth: P-lim chemostat, doubling time 12 h
[12] = E. coli NCM3722 delta-clpP, growth: N-lim chemostat, doubling time 6 h

| Sequence | total protein half-life in vivo [1] [h] | total protein half-life in vivo [2] [h] | total protein half-life in vivo [3] [h] | total protein half-life in vivo [4] [h] | total protein half-life in vivo [5] [h] | total protein half-life in vivo [6] [h] | total protein half-life in vivo [7] [h] | total protein half-life in vivo [8] [h] | total protein half-life in vivo [9] [h] | total protein half-life in vivo [10] [h] | total protein half-life in vivo [11] [h] | total protein half-life in vivo [12] [h] |
| --- | --- | --- | --- | --- | --- | --- | --- | --- | --- | --- | --- | --- |
| MVSLEKNDHLMLARQLPLKSVALILAGGRGTRLKDLTNKRAKPAVHFGGKFRIIDFALSNCINSGIRRMGVITQYQSHTLVQHIQRGWSFFNEEMNEFVDLLPAQQRMKGENWYRGTADAVTQNLDIIRRYKAEYVVILAGDHIYKQDYSRMLIDHVEKGARCTVACMPVPIEEASAFGVMAVDENDKIIEFVEKPANPPSMPNDPSKSLASMGIYVFDADYLYELLEEDDRDENSSHDFGKDLIPKITEAGLAYAHPFPLSCVQSDPDAEPYWRDVGTLEAYWKANLDLASVVPELDMYDRNWPIRTYNESLPPAKFVQDRSGSHGMTLNSLVSGGCVISGSVVVQSVLFSRVRVNSFCNIDSAVLLPEVWVGRSCRLRRCVIDRACVIPEGMVIGENAEEDARRFYRSEEGIVLVTREMLRKLGHKQER [P0A6V1] | 6.16 ± 0.19 | 6.42 ± 1 | 5.94 ± 0.29 | 5.54 ± 0.52 | 3.34 ± 0.11 | 6.04 ± 0.72 | 12.2 ± 0.15 | 5.535 ± 0.042 | 9.99 ± 0.24 | 6.46 ± 0.65 | 12.2 ± 0.32 | – |
| MLLEQGWLVGARRVPSPHYDCRPDDETPTLLVVHNISLPPGEFGGPWIDALFTGTIDPQAHPFFAEIAHLRVSAHCLIRRDGEIVQYVPFDKRAWHAGVSQYQGRERCNDFSIGIELEGTDTLAYTDAQYQQLAAVTRALIDCYPDIAKNMTGHCDIAPDRKTDPGPAFDWARFRVLVSKETT | 5.19 ± 0.54 | 3.07 ± 0.013 | 3.75 ± 0.89 | 2.96 ± 0.27 | 3.18 ± 0.31 | 4.11 ± 0.3 | 7.89 ± 1.5 | 2.88 ± 0.77 | 5.25 ± 0.51 | 4.46 ± 0.12 | 9.44 ± 0.099 | 3.72 |
| MLYLTKISNAGSEFTENEQKIADFLQANVSELQSVSSRQMAKQLGISQSSIVKFAQKLGAQGFTELRMALIGEYSASREKTNATALHLHSSITSDDSLEVIARKLNREKELALEQTCALLDYARLQKIIEVISKAPFIQITGLGGSALVGRDLSFKLMKIGYRVACEADTHVQATVSQALKKGDVQIAISYSGSKKEIVLCAEAARKQGATVIAITSLTDSPLRRLAHFTLDTVSGETEWRSSSMSTRTAQNSVTDLLFVGLVQLNDVESLKMIQRSSELTQRLK | 6.32 ± 0.32 | 5.52 ± 0.44 | 5.93 ± 2.8 | 5.37 ± 0.52 | 3.04 ± 0.11 | 5.97 ± 0.46 | 12.7 ± 3 | 5.36 ± 0.48 | – | 5.74 | 12 ± 2 | 5.62 ± 0.76 |
| MTRIKINARRIFSLLIPFFFFTSVHAEQTAAPAKPVTVEAKNETFAPQHPDQYLSWKATSEQSERVDALAEDPRLVILWAGYPFSRDYNKPRGHAFAVTDVRETLRTGAPKNAEDGPLPMACWSCKSPDVARLIQKDGEDGYFHGKWARGGPEIVNNLGCADCHNTASPEFAKGKPELTLSRPYAARAMEAIGKPFEKAGRFDQQSMVCGQCHVEYYFDGKNKAVKFPWDDGMKVENMEQYYDKIAFSDWTNSLSKTPMLKAQHPEYETWTAGIHGKNNVTCIDCHMPKVQNAEGKLYTDHKIGNPFDNFAQTCANCHTQDKAALQKVVAERKQSINDLKIKVEDQLVHAHFEAKAALDAGATEAEMKPIQDDIRHAQWRWDLAIASHGIHMHAPEEGLRMLGTAMDKAADARTKLARLLATKGITHEIQIPDISTKEKAQQAIGLNMEQIKAEKQDFIKTVIPQWEEQARKNGLLSQ [P0ABK9] | 3.84 | – | – | – | – | – | > 16 | – | 10.5 ± 0.82 | – | – | 5.87 |
| MHWQTHTVFNQPIPLNNSNLYLSDGALCEAVTREGAGWDSDFLASIGQQLGTAESLELGRLANVNPPELLRYDAQGRRLDDVRFHPAWHLLMQALCTNRVHNLAWEEDARSGAFVARAARFMLHAQVEAGSLCPITMTFAATPLLLQMLPAPFQDWTTPLLSDRYDSHLLPGGQKRGLLIGMGMTEKQGGSDVMSNTTRAERLEDGSYRLVGHKWFFSVPQSDAHLVLAQTAGGLSCFFVPRFLPDGQRNAIRLERLKDKLGNRSNASCEVEFQDAIGWLLGLEGEGIRLILKMGGMTRFDCALGSHAMMRRAFSLAIYHAHQRHVFGNPLIQQPLMRHVLSRMALQLEGQTALLFRLARAWDRRADAKEALWARLFTPAAKFVICKRGMPFVAEAMEVLGGIGYCEESELPRLYREMPVNSIWEGSGNIMCLDVLRVLNKQAGVYDLLSEAFVEVKGQDRYFDRAVRRLQQQLRKPAEELGREITHQLFLLGCGAQMLKYASPPMAQAWCQVMLDTRGGVRLSEQIQNDLLLRATGGVCV | 4.81 ± 0.12 | 5.583 ± 0.035 | 4.72 ± 0.15 | 5.28 ± 0.11 | 3.296 ± 0.026 | 5.91 ± 0.25 | 11.3 ± 0.59 | 5.18 ± 0.13 | 11.5 ± 0.84 | 6.51 ± 0.25 | 11.5 ± 0.058 | 4.91 ± 0.18 |
| MANSSSRYSVLTAAHWGPMLVETDGETVFSSRGALATGMENSLQSAVRDQVHSNTRVRFPMVRKGFLASPENPQGIRGQDEFVRVSWDEALDLIHQQHKRIREAYGPASIFAGSYGWRSNGVLHKASTLLQRYMALAGGYTGHLGDYSTGAAQAIMPYVVGGSEVYQQQTSWPLVLEHSDVVVLWSANPLNTLKIAWNASDEQGLSYFSALRDSGKKLICIDPMRSETVDFFGDKMEWVAPHMGTDVALMLGIAHTLVENGWHDEAFLARCTTGYAVFASYLLGESDGIAKTAEWAAEICGVGAAKIRELAAIFHQNTTMLMAGWGMQRQQFGEQKHWMIVTLAAMLGQIGTPGGGFGLSYHFANGGNPTRRSAVLSSMQGSLPGGCDAVDKIPVARIVEALENPGGAYQHNGMNRHFPDIRFIWWAGGANFTHHQDTNRLIRAWQKPELVVISECFWTAAAKHADIVLPATTSFERNDLTMTGDYSNQHLVPMKQVVPPRYEARNDFDVFAELSERWEKGGYARFTEGKSELQWLETFYNVARQRGASQQVELPPFAEFWQANQLIEMPENPDSERFIRFADFCRDPLAHPLKTASGKIEIFSQRIADYGYPDCPGHPMWLEPDEWQGNAEPEQLQVLSAHPAHRLHSQLNYSSLRELYAVANREPVTIHPDDAQERGIQDGDTVRLWNARGQILAGAVISEGIKPGVICIHEGAWPDLDLTADGICKNGAVNVLTKDLPSSRLGNGCAGNTALAWLEKYNGPELTLTAFEPPASS | 4.73 ± 0.25 | 3.62 ± 0.17 | 4.25 ± 0.41 | 3.293 ± 0.026 | 2.4 ± 0.26 | 4.57 ± 0.6 | 7.73 ± 0.2 | 3.56 ± 0.24 | 5.57 ± 0.67 | 3.55 ± 0.4 | 6.319 ± 0.0081 | 3.43 ± 0.21 |
| MKVIIVEDEFLAQQELSWLIKEHSQMEIVGTFDDGLDVLKFLQHNRVDAIFLDINIPSLDGVLLAQNISQFAHKPFIVFITAWKEHAVEAFELEAFDYILKPYQESRITGMLQKLEAAWQQQQTSSTPAATVTRENDTINLVKDERIIVTPINDIYYAEAHEKMTFVYTRRESYVMPMNITEFCSKLPPSHFFRCHRSFCVNLNKIREIEPWFNNTYILRLKDLDFEVPVSRSKVKEFRQLMHL [P0AE39] | 5.23 ± 0.21 | 4.019 ± 0.0042 | 4.73 ± 0.72 | 4.01 ± 0.061 | 2.8 ± 0.42 | 6 ± 0.71 | 8.85 ± 0.64 | 4.44 ± 0.42 | 7.31 ± 0.66 | 4.93 ± 0.72 | 9.66 ± 0.46 | 4.51 ± 0.32 |
| MTEIVADKTVEVVKNAIETADGALDLYNKYLDQVIPWQTFDETIKELSRFKQEYSQAASVLVGDIKTLLMDSQDKYFEATQTVYEWCGVATQLLAAYILLFDEYNEKKASAQKDILIKVLDDGITKLNEAQKSLLVSSQSFNNASGKLLALDSQLTNDFSEKSSYFQSQVDKIRKEAYAGAAAGVVAGPFGLIISYSIAAGVVEGKLIPELKNKLKSVQNFFTTLSNTVKQANKDIDAAKLKLTTEIAAIGEIKTETETTRFYVDYDDLMLSLLKEAAKKMINTCNEYQKRHGKKTLFEVPEV | 4.51 ± 0.82 | 3.54 ± 0.068 | 3.77 ± 0.13 | 2.84 ± 0.25 | 3.15 ± 0.65 | 4.71 ± 0.94 | 6.71 ± 1.1 | 3.2 ± 0.039 | 5.29 ± 0.62 | 4.11 ± 0.63 | 7.49 ± 0.36 | 4.37 ± 0.14 |
| MAKQPGLDFQSAKGGLGELKRRLLFVIGALIVFRIGSFIPIPGIDAAVLAKLLEQQRGTIIEMFNMFSGGALSRASIFALGIMPYISASIIIQLLTVVHPTLAEIKKEGESGRRKISQYTRYGTLVLAIFQSIGIATGLPNMPGMQGLVINPGFAFYFTAVVSLVTGTMFLMWLGEQITERGIGNGISIIIFAGIVAGLPPAIAHTIEQARQGDLHFLVLLLVAVLVFAVTFFVVFVERGQRRIVVNYAKRQQGRRVYAAQSTHLPLKVNMAGVIPAIFASSIILFPATIASWFGGGTGWNWLTTISLYLQPGQPLYVLLYASAIIFFCFFYTALVFNPRETADNLKKSGAFVPGIRPGEQTAKYIDKVMTRLTLVGALYITFICLIPEFMRDAMKVPFYFGGTSLLIVVVVIMDFMAQVQTLMMSSQYESALKKANLKGYGR [P0AGA2] | 4.966 ± 0.022 | 5.77 ± 1 | 4.51 ± 0.048 | 5.24 ± 1 | 3.3 ± 0.39 | 5.04 ± 0.31 | 9.27 ± 3 | 4.83 ± 0.52 | 8.18 ± 0.17 | 4.94 ± 0.68 | 8.06 ± 0.49 | – |
